The values that follow come from patent US20180256645A1.

The target of the assay is murine/mouse full length CXCR6 (chemokine receptor 6), expressed on transduced murine CD8+ T cells (murine/mouse) (UniProt Q9EQ16). Put plainly: cell-based or functional assay.
UniProt Q9EQ16, sequence (Q9EQ16 1-350): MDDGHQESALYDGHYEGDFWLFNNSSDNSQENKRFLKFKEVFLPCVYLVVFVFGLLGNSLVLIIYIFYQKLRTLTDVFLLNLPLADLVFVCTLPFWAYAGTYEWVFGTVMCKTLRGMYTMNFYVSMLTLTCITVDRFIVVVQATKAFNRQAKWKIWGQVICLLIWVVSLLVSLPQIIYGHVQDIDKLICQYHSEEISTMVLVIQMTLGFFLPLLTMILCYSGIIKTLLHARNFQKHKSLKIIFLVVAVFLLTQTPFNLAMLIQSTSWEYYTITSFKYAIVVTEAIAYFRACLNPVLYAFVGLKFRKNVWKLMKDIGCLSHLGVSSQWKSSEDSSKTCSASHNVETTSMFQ

In turn, “recombinant CXCL16 (SEQ ID NO: 9) (Peprotech, Hamburg) (from UniProt Q8BSU2 27-114) (ligand)” came in with an internalisation and recycling of CXCR6 (live confocal fluorescence microscopy) of 30 min.
